The values that follow come from patent publication US20250019430A1 (SEOUL NATIONAL UNIVERSITY HOSPITAL, published 2025).

Sequences and labels used below:
B1: RETN-5A2 (antibody, human IgG1, V domains shown)
VH: QVQLVQSGAEGRKPGSSVKVSCKVSGDTFSSYAISWVRQAPGQGLEWMGGIIPIFGAADYAQKFKGRVTISADESTSTAYMELSSLRSEDTAVYYCAKGPDYYGSFDPWGQGTLITVSS
VL: DIQMTQSPSFLSASVGDRVTITCRASQYIGTYLAWYQQQPGKAPKLLIYGASILQNGVPSRFSGSASGTEFTLTISSLQPEDFATYYCQQADSFPLTFGGGTKVDIKR
notes: Human antibody from scFv phage library, converted to IgG and made in HEK293F cells; also called parent antibody 5A2; resistin 5A2 parent antibody
B2: RETN-5A2_LS_2F11 (antibody, human IgG1, V domains shown)
VH: B1 VH
VL: DIQMTQSPSSLSASVGDRVTITCRASQSIGTYLNWYQQKPGKAPKLLIYDASSLEDGVPSRFSGSGSGTDFTLTISSLQPEDSATYYCQQSYTMPLYTFGQGTKLEIKR
notes: Light chain shuffled variant of RETN-5A2, tested as IgG
B3: RETN-5A2_LS_2B02 (antibody, human IgG1, V domains shown)
VH: B1 VH
VL: DIQMTQSPGTLSLSAGERATLSCRASQSVRGSYLAWYQQKPGQAPRLLIYGTSSRAPGIPDRFSGSGSGTDFTLTISSLEPEDFAVYYCQQRGDWLYTFGQGTKVEIKR
notes: as for B2
B4: RETN-5A2_LS_2E10 (antibody, human IgG1, V domains shown)
VH: B1 VH
VL: DIQMTQSPSSLSASVGDRVTITCRTSQTITNYLNWYQQKPGRAPKLLIFDASNLETGVPSRFSGSGSGTDFTLTISSLQPEDFATYFCQQSYNPGYTFGQGTKLEIKR
notes: as for B2
B5: RETN-5A2_LS_2H10 (antibody, human IgG1, V domains shown)
VH: B1 VH
VL: NFMLTQPASVSGSPGQSITISCTGSSSDVGGYNYVTWYQQHPGKAPQLIIYDVTKRPSGVSNRFSGSKSGNSASLTISGLQAEDEADYYCSSYSSSTFYVFGTGTKVTVLR
notes: as for B2
B6: RETN-5A2_LS_2D07 (antibody, human IgG1, V domains shown)
VH: B1 VH
VL: QSALTQPASVSGSPGQSVTISCTGTSSDIGRYNRVSWYQHHPGKAPKLIIYDVSNRPSGVSNRFSGSKSGNTASLTISGLQAGDESDYYCSAYTRSSTWVFGGGTKLTVLR
notes: as for B2
B7: RETN-5A2_LS_1F11 (antibody, human IgG1, V domains shown)
VH: B1 VH
VL: not shown
notes: as for B2
B8: RETN-5A2_LS_2G03 (antibody, human IgG1, V domains shown)
VH: B1 VH
VL: DIQMTQSPSSLSASVGDRVTITCQASQHVSSYLNWYQQKPGKAPKLLIYAASNLQSGVPSRFSGSGSGTDFTLTISSLQPDDFATYYCQQYDSYSSVYTFGPGTKLDIKR
notes: as for B2

What is called Kd is the constant that tells how readily two partners part at equilibrium. A higher Kd goes with lower affinity.

In one assay the target is T1, murine resistin (#450-28) from peprotech (mouse, UniProt Q99P87 21-114).
T1 construct: Bought; also called mouse antigen; mouse resistin antigen
T1 sequence (looked up): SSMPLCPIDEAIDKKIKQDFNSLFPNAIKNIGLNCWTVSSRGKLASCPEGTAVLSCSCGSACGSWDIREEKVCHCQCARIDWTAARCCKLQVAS
In words: ELISA, coated murine resistin. The procedure:
The mouse antigen was murine resistin (#450-28) from peprotech. Mouse antigen was diluted to 10 nM in DPBS in 96-well immune plates (NUNC, 439454) at 100 μl per well, and coated for 16 hours at 4° C. It was then blocked with skim milk diluted 4% in PBS for 1 hour at 37° C. Antibody proteins were diluted in 1% skim milk diluted in PBS to 1, 10, and 100 nM, respectively, at 100 μl per well and incubated for 2 hours at 37° C. After washing with PBS-T, anti-human Fc-HRP (Pierce® Peroxidase Conjugated Goat Anti-Human IgG FC (thermo fisher scientific, 31413)) was diluted at 1:10,000 dilution and reacted for 1 hour at 37° C. as a secondary antibody. After PBS-T washing, 100 μl of TMB (sigma, T0440) solution was applied to each well for a 10 min substrate reaction. After 10 minutes, the substrate reaction was stopped by treating each well with 50 μl of 1N H₂SO₄ and measured at 490 nm using a spectrophotometer (thermo fisher scientific, 51119200).
In general terms: ELISA stands for enzyme-linked immunosorbent assay.
Turning to B1, the binding result is “no binding (tested: antibody at 1, 10 and 100 nM)”.

The next assay deals with T2, resistin antigen (UniProt Q9HD89 19-108, limits assumed).
T2 construct: Used for the Octet assays and the monophage ELISAs, where only 'resistin antigen' is printed; tags not known; also called resistin antigen protein
T2 sequence (looked up): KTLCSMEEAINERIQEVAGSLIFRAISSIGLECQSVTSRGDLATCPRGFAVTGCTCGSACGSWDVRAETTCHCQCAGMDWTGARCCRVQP
In words: Octet, resistin antigen on the biosensor, antibody in solution. The text has this: To investigate the affinity between the antibody and the resistin antigen, the Octet (Forte bio) system, which enables real-time investigation of ligand-receptor binding using a biosensor, was used. The system is an instrument that binds resistin antigen protein to a biosensor, flows antibody through it, and optically analyzes the degree of antibody binding to the antigen bound to the sensor, measuring the level of antibody binding to the antigen with high sensitivity at the light wavelength level. The affinity for the resistin antigen was expressed as Kₒₙ (association constants, binding rate) and Kdis (dissociation constants, dissociation rate) between the receptor and ligand, and KD (equilibrium dissociation constant) for the reaction of binding and dissociation.
In general terms: Biolayer interferometry detects binding as a change in optical thickness at a sensor tip.
B1 had a Kd of at most 1 nM.

The molecule B2 registered a Kd of at most 1 nM. On the same count and under the same terms, to B3 belongs at most 1 nM; to B4, at most 1 nM.

B5: the Kd was at most 1 nM. Still for that read-out and setting: the same measure for B6: at most 1 nM.

Molecule B7 returned a Kd of at most 1 nM.

B8 had a Kd of at most 1 nM.
